Experimental data published in paper PMC6949242.

Legend:
[1] = molecular target: FOXO1 DNA-binding domain;ETS1 Y410A Y410A (UniProt Q12778+P14921); assay: ITC; details: FOXO1 titrated into equimolar ETS1 Y410A + DNA; Kd of FOXO1; 50 mM Bis-Tris, 150 mM NaCl, pH 6.5; ITC at 25 °C; NMR 1H-15N HSQC with 100 uM FOXO1
[2] = molecular target: FOXO1 DNA-binding domain;ETS1 DNA-binding domain (UniProt Q12778+P14921); assay: ITC; details: FOXO1 titrated into equimolar ETS1 + DNA; Kd of FOXO1; 50 mM Bis-Tris, 150 mM NaCl, pH 6.5; ITC at 25 °C; NMR 1H-15N HSQC with 100 uM FOXO1
[3] = molecular target: FOXO1 DNA-binding domain;ETS1 R409H R409H (UniProt Q12778+P14921); assay: ITC; details: FOXO1 titrated into equimolar ETS1 R409H + DNA; Kd of FOXO1; 50 mM Bis-Tris, 150 mM NaCl, pH 6.5; ITC at 25 °C; NMR 1H-15N HSQC with 100 uM FOXO1
FOXO1 DNA-binding domain [4] = molecular target: FOXO1 DNA-binding domain (UniProt Q12778); assay: ITC; details: FOXO1 alone; 50 mM Bis-Tris, 150 mM NaCl, pH 6.5; ITC at 25 °C; NMR 1H-15N HSQC with 100 uM FOXO1
[5] = molecular target: FOXO1 DNA-binding domain;ETS1 R409A R409A (UniProt Q12778+P14921); assay: ITC; details: FOXO1 titrated into equimolar ETS1 R409A + DNA; Kd of FOXO1; 50 mM Bis-Tris, 150 mM NaCl, pH 6.5; ITC at 25 °C; NMR 1H-15N HSQC with 100 uM FOXO1
FOXO1 DNA-binding domain [6] = molecular target: FOXO1 DNA-binding domain (UniProt Q12778); assay: NMR; details: FOXO1 alone, 50 mM Bis-Tris, 150 mM NaCl, pH 6.5, ITC at 25 °C, NMR 1H-15N HSQC with 100 uM FOXO1

**Q.** For AAAACAACAGGAAGTATTT (double strand) [ω], which Kd [1] is on record?
**A.** 313 nM

**Q.** What about the Kd [2] of the same sequence?
**A.** 44 nM

**Q.** What about the Kd [3] of the same sequence?
**A.** 67 nM

**Q.** What about the Kd (FOXO1 DNA-binding domain [4]) of the same sequence?
**A.** 352 nM

**Q.** And the Kd [5]?
**A.** 151 nM

**Q.** With “TGACGCACCGGAAGTTAGG (double strand) [ω-high]” as the sequence, how does the Kd (FOXO1 DNA-binding domain [6]; fit of residue G161 peak) read?
**A.** 122000 nM

**Q.** What about the Kd (FOXO1 DNA-binding domain [6]; mean of selected peaks, fast exchange) of the same sequence?
**A.** 167000 nM

**Q.** With “CTGTAAACAGGAAGTGGAG (double strand) [ω-none]” as the sequence, how does the Kd [2] read?
**A.** 26 nM

**Q.** And the Kd (FOXO1 DNA-binding domain [4])?
**A.** 24 nM
